Read-outs that look alike come from different tables or passages of the source.

Test [1] addresses T1, human PCSK9 (proprotein convertase subtilisin kexin type 9) (human, UniProt Q8NBP7 31-692).
T1 construct: Used untagged, biotinylated, V5/His- or His-tagged depending on the assay; also called hPCSK9; huPCSK9
The test is described as follows: BIAcore solution equilibrium, pH 7.4. Background: SPR reads the build-up and loss of mass on a sensor chip optically.

Test [2] deals with T1, human PCSK9 (proprotein convertase …). The test is described as follows: BIAcore solution equilibrium, pH 5.5.
The target is the same in test [3]. The test is described as follows: BIAcore solution equilibrium, pH 6.0.
Test [4] deals with T2, PCSK9 ProCat (31-449 of SEQ ID NO: 3) (human, UniProt Q8NBP7 27-449).
T2 construct: From PCSK9 449TEV after rTEV cleavage: GAMG-PCSK9 (31-449)-ENLYFQ; Written as one chain; autocatalysis between 152 and 153 splits pro-domain and catalytic domain; also called procat PCSK9; PCSK9 31-449
In words: domain binding ELISA (coated antibody captures the PCSK9 form; OD650). A general note: ELISA stands for enzyme-linked immunosorbent assay.

Test [5] has as its target T3, PCSK9 V domain (450-692 of SEQ ID NO: 3) (human, UniProt Q8NBP7 450-692).
T3 construct: also called v-domain PCSK9
T3 chain: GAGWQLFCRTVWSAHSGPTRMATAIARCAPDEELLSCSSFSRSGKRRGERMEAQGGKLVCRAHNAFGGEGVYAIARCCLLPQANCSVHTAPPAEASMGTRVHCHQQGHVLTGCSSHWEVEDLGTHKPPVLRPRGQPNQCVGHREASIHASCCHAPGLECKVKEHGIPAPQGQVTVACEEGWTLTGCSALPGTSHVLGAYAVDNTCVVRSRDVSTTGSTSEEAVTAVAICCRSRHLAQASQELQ
Described as above.

Test [6] deals with T1, human PCSK9 (proprotein convertase …). The test is described as follows: BIAcore kinetic assay 2, antibody captured, pH 5.5.
Test [7] shares this target. In words: BIAcore kinetic assay 2, antibody captured, pH 7.4.
The target is the same in test [8]. In words: BIAcore kinetic assay 2.
Test [9] has the same target. In words: BIAcore kinetic assay 2, antibody captured, pH 6.0.
Test [10] shares this target. In words: BIAcore kinetic assay 1, His-tagged huPCSK9 captured, pH 5.5.
Test [11] shares this target. In words: BIAcore kinetic assay 1, His-tagged huPCSK9 captured, pH 6.0.
For test [12] the target is unchanged. The test is described as follows: BIAcore kinetic assay 1, His-tagged huPCSK9 captured, pH 7.4.
The target of test [13] is T2, PCSK9 ProCat (31-449 of SEQ ID NO: 3). In words: domain binding ELISA (coated antibody captures the PCSK9 form; OD650). This is another data set of the same source.
Test [14] addresses T3, PCSK9 V domain (450-692 of SEQ ID NO: 3). The test is described as above.

B1: 23B5 (antibody, V domains shown)
VH: EVQLLESGGGLVQPGGSLRLSCAASGFTFSSYAMNWVRQAPGKGLEWVSTISGSGDNTYYADSVKGRFTISRDNSKNTLYLQMNSLRAEDTAVYYCAKKFVLMVYAMLDYWGQGTLVTVSS
VL: DILMTQSPSSLSASVGDRVTITCRASQSISSYLNWYQQKPGKAPKVLIYAASSLQSGVPSRFSGSGSGTDFTLTINSLQPEDFATYYCQQSYSSPITFGQGTRLEIK
Usually Kd stands for the concentration at which binding is half-saturated. A high value points to lower affinity. As to B1, the Kd in test [1] came out at 0.1 nM; in test [2], 0.28 nM; in test [3], 0.2 nM. In addition, the binding result in [4] was “binds”; in test [5], “no binding”.

B2: 27B2 (antibody, V domains shown)
VH: QVQLQESGPGLVKPSQTLSLTCTVSGGSISSGGYYWSWIRQHPGKGLEWIGYIYNSGSTYYNPSLKSRVTISVDTSKNQFSLKLSSVTAADTAVYYCAREDTAMVPYFDYWGQGTLVTVSS
VL: QSVLTQPPSVSGAPGQRVTISCTGSSSNIGAHYDVHWYQQVPGTAPKLLIYGNTYRPSGVPDRFSGSKSGTSASLAITGLQAEDEADYYCQSYDNSLSGVVFGGGTKLTVL
notes: also called 27B2.3; 27B2.3-7.4
The koff is the rate constant with which the complex falls apart. A low value points to a long-lived complex. Turning to B2, the dissociation rate constant (koff) in [6] was 0.00052 s⁻¹; in [7], 0.00038 s⁻¹; in [9] it was 0.00051 s⁻¹. Also, the “off rate ratio pH 5.5/pH 7.4” value in [8] was 1.4. Also, the “off rate ratio pH 6.0/pH 7.4” value in test [8] is 1.3.

B3: 1A12 (antibody, V domains shown)
VH: EVQLVESGGGLVQPGGSLRLSCAASGLTFSNFWMSWVRQAPGKGLEWVANIKQDGSEKYYVDSVKGRFTISRDNAKNSLYLQMNSLRAEDTAVYSCTRESNWGFAFDIWGQGTMVTVSS
VL: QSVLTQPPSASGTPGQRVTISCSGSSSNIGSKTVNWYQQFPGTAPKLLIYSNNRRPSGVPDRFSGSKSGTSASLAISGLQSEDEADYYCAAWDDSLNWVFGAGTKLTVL
notes: also called 1A12.2
With B3, the Kd in test [10] was found to be 1.4 nM; in [11] it was 1.3 nM; in test [1] it was 0.56 nM; in [2], 1.1 nM; in test [3] it was 1 nM; in test [12], 0.4 nM. In addition, the binding result in test [13] is listed as “binds”; in test [14] it was “no binding”.

B4: 9H6 (antibody, V domains shown)
VH: EVQLVESGGGLVQPGGSLRLSCAASGFTFSRYWMSWVRQAPGKGLEWVANIKHDGSEKYYVDSVKGRFTISRDNAKNSLYLQMNSLRAEDTAVYYCARESNWGFAFDVWGHGTMVTVSS
VL: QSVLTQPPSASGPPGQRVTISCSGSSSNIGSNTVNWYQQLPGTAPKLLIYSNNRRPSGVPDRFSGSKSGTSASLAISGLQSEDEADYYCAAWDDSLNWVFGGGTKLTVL
As for B4, the equilibrium dissociation constant (Kd) in test [1] is 0.7 nM; in test [2], 1.4 nM; in [3] it was 1.3 nM. Besides, the binding result is “binds” in [4] and “no binding” in test [5].

B5: 26H5 (antibody, V domains shown)
VH: QVQLVQSGAEVKKPGASVKVSCKASGYTLTSYGISWVRQAPGQGLEWMGWISFYNGNTNYAQKVQGRVTMTTDTSTSTVYMELRSLRSDDTAVYYCARGYGMDVWGQGTTVTVSS
VL: QSALTQPASVSGSPGQSITISCTGTSSDVGGYNSVSWYQQHPGKPPKLMIYEVSNRPSGVSIRFSGSKSGNTASLTISGLQAEDEADYFCSSYTSTSMVFGGGTKLTVL
notes: also called 26H5-7.4
With B5, the values for the koff in [6], in [7] and in test [9] were 0.00026 s⁻¹, 0.00056 s⁻¹ and 0.00047 s⁻¹, respectively. Besides, the “off rate ratio pH 5.5/pH 7.4” value in test [8] is 0.5. In addition, the “off rate ratio pH 6.0/pH 7.4” value in test [8] amounted to 0.8. For the same molecule, the binding result in test [13] is reported as “binds”; in test [14], “no binding”.

For the origin of these results see patent publication US20130072665A1 (Amgen, published 2013).
